{"source": "patent US20160264650A1", "about": "(Regeneron, published 2016)", "binders": {"B1": {"name": "H1H3330P (antibody, V domains shown)", "VH": "QVQLVESGGGVVQPGGSLRLSCAASGFTFSSYAMHWVRQAPGKGLEWVAIIWFDGSNEDYADSVKGRFTISRDNSKNMVYLQINSLRAEDTAVYYCARSANWNYEGGPLFDYWGQGTLVTVSS", "VL": "DIQMTQSPSSLSASVGDRVTITCRASQTISTFLNWYQQKPGKGPELLIYTASSLQSGVPSRFSGSGSGTDFALTISSLQPEDFATYYCQQNYNDPPTFGQGTRLEIKR"}, "B2": {"name": "H2M3123N (antibody, V domains shown)", "VH": "DVQLVESGGDFVQPGGSLRLSCAASGVAFNDYEMNWIRQAPGKRLEWISHIDSSGTIIYYADSVKGRFTISRDSAKNSLFLQMDSLRAEDTAVYYCARERYSHYGYYYFGMDVWGQGTTVTVSS", "VL": "DIQMTQSPSTLSASVGDRVTITCRASQNIDNWLAWYQQKTGKAPNLLIYKASTLESGVPSRFSGSGSGTEFTLTIISLQPDDFATYYCQEYNTYSRTFGQGTKVEIK", "notes": "also called H2aM3123N; H1M3123N"}}, "key": {"[1]": {"molecular_target": "T1, Clostridium difficile toxin A, soluble full-length (TechLab) (Clostridium difficile, UniProt P16154 1-2710)", "experiment": "cell-based or functional assay"}, "[2]": {"molecular_target": "T1, Clostridium difficile toxin A, soluble …", "experiment": "cell-based or functional assay", "remark": "listed apart in the source"}, "[3]": {"molecular_target": "T1, Clostridium difficile toxin A, soluble …", "experiment": "SPR Biacore T200, 37C, mAb capture"}, "[4]": {"molecular_target": "T2, CBD-toxin A-Fc (Clostridium difficile, UniProt P16154 1848-2710)", "T2 construct": "also called CBD-A; C-term Toxin A", "experiment": "SPR Biacore, CBD-A-Fc captured, 500 nM mAb flowed"}, "[5]": {"molecular_target": "T3, CBD-toxin B-Fc (Clostridium difficile, UniProt P18177 1851-2366)", "T3 construct": "also called CBD-B; C-term Toxin B", "experiment": "SPR Biacore, CBD-B-Fc captured, 500 nM mAb flowed"}, "[6]": {"molecular_target": "T2, CBD-toxin A-Fc", "experiment": "SPR Biacore, mAb captured, 100 nM CBD-A-Fc flowed"}, "[7]": {"molecular_target": "T1, Clostridium difficile toxin A, soluble …", "experiment": "SPR Biacore T200, 37C, mAb capture", "remark": "listed apart in the source"}, "[8]": {"molecular_target": "T4, Clostridium difficile toxin B, soluble full-length (TechLab) (Clostridium difficile, UniProt P18177 2-2366)", "T4 construct": "also called tcdB", "experiment": "SPR Biacore T200, 37C, mAb capture"}, "[9]": {"molecular_target": "T5, C-term receptor Binding Domain (CBD) of toxin A (Clostridium difficile, UniProt P16154 1848-2710)", "T5 construct": "also called CBD-A; recombinant CBD of toxin A", "experiment": "SEC (Superose 6) of CBD and mAb mixture"}, "[10]": {"molecular_target": "T2, CBD-toxin A-Fc", "experiment": "SPR Biacore, mAb capture and CBD-Fc capture formats"}, "[11]": {"molecular_target": "T3, CBD-toxin B-Fc", "experiment": "SPR Biacore, mAb capture and CBD-Fc capture formats"}}, "note": "Read-outs that look alike come from different tables or passages of the source."}
{"binder": "B1", "values": [{"measurement": "neutralization potency relative to control I", "setting": "[1]", "result": "~20", "unit": "fold"}, {"measurement": "IC50, Vero cell viability (neutralization), Trial 3, 32 pM Toxin A", "setting": "[2]", "result": 7, "unit": "pM"}, {"measurement": "IC50, Vero cell viability (neutralization), Trial 5, 25 pM Toxin A", "setting": "[2]", "result": 7, "unit": "pM"}, {"measurement": "Kd", "setting": "[3]", "result": 0.547, "unit": "nM"}, {"measurement": "T½", "setting": "[3]", "result": 85, "unit": "min"}, {"measurement": "koff", "setting": "[3]", "result": 0.000137, "unit": "s⁻¹"}, {"measurement": "kon", "setting": "[3]", "result": 250000, "unit": "M⁻¹ s⁻¹"}, {"measurement": "binding (RU)", "setting": "[4]", "result": 515, "unit": "RU"}, {"measurement": "binding (RU)", "setting": "[5]", "result": -4, "unit": "RU"}, {"measurement": "binding (RU)", "setting": "[6]", "result": 441, "unit": "RU"}]}
{"binder": "B2", "values": [{"measurement": "IC50, Vero cell viability (neutralization), Trial 1, 32 pM Toxin A", "setting": "[2]", "result": 65, "unit": "pM"}, {"measurement": "IC50, Vero cell viability (neutralization), Trial 2, 32 pM Toxin A", "setting": "[2]", "result": 24, "unit": "pM"}, {"measurement": "Kd", "setting": "[7]", "result": 0.481, "unit": "nM"}, {"measurement": "T½", "setting": "[7]", "result": 19, "unit": "min"}, {"measurement": "koff", "setting": "[7]", "result": 0.000593, "unit": "s⁻¹"}, {"measurement": "kon", "setting": "[7]", "result": "1.23e+06", "unit": "M⁻¹ s⁻¹"}, {"measurement": "Kd", "setting": "[8]", "result": 1.65, "unit": "nM"}, {"measurement": "T½", "setting": "[8]", "result": 176, "unit": "min"}, {"measurement": "koff", "setting": "[8]", "result": "6.54e-05", "unit": "s⁻¹"}, {"measurement": "kon", "setting": "[8]", "result": 39700, "unit": "M⁻¹ s⁻¹"}, {"measurement": "binding result", "setting": "[9]", "result": "no binding (tested: CBD at ~500 nM, CBD:Mab 1:5 and 1:20)"}, {"measurement": "binding (RU)", "setting": "[4]", "result": 23, "unit": "RU"}, {"measurement": "binding (RU)", "setting": "[6]", "result": 1, "unit": "RU"}, {"measurement": "binding result", "setting": "[10]", "result": "no binding"}, {"measurement": "binding result", "setting": "[11]", "result": "no binding"}]}
